Measured values as given in patent US20230406950A1 (LYVGEN BIOPHARMA, published 2023).

Tests used:
[1] = target: T1, human PD-L1 expressed on cells (human, UniProt Q9NZQ7 19-290); test: flow cytometry (FACS), MFI, CHO cells expressing human PD-L1
T1 construct: whole, on cells; also called human PD-L1 expressed on CHO cells; Raji-PD-L1 cells
Description: (§1) Exemplary anti-PD-1/CD137 bi-specific antibodies were analyzed by FACS for their binding properties to human PD-1 and/or human CD137 expressed on CHO cells. Briefly, cultured cells were harvested, counted and cell viability was evaluated using the Trypan Blue exclusion method. Viable cells were then adjusted to 2×10⁶ cells per mL in PBS containing 2% BSA. 100 μL of this cell suspension were further aliquoted per well into a V-bottom 96-well plate. […] After incubation for 2 hours at 4° C., cells were centrifuged (3 min, 1000× g), washed with 250 μL/well BSA-containing FACS Stain Buffer, resuspended and incubated for an additional 1 hour at 4° C. with 100 μL/well fluorochrome-conjugated anti-IgG antibody for detection of the bisepecific antibody. Cells were then washed with 250 μL/well BSA-containing FACS Stain Buffer, resuspended in 100 μL/well FACS Stain Buffer, acquired and analyzed using a FACS machine. Binding of the bispecific antibodies to human PD-1 or human CD137 expressing CHO cells were evaluated and the mean fluorescence intensity is plotted in histograms or dot plots.
Exemplary anti-PD-L1/CD137 bi-specific antibodies were analyzed by FACS for their binding properties to human PD-L1 or human CD137 expressed on CHO cells, following the procedures disclosed in Examples 1 above.

[2] = target: T2, ECD portion of human CD137 protein (mouse IgG2a Fc tag) (human, UniProt Q07011 24-186); test: bridging ELISA: human CD137 ECD (mouse IgG2a Fc tag) coated, antibody titrated, then human PD-L1 ECD (His tag), HRP anti-His detection; A450-A620
T2 construct: extracellular domain; also called recombinant human CD137; not shown: mouse IgG2a Fc tag
Description: (§2) Exemplary anti-PD-L1/CD137 bi-specific antibodies were analyzed by ELISA for their simultaneous binding to recombinant human PD-L1 and human CD137. Briefly, the ECD portion of human CD137 protein (mouse IgG2a Fc tag) was diluted and coated onto an ELISA plate with a volume of 100 μL/well by incubation at 4° C. overnight. The next day, the plate was blocked with PBST-BSA buffer, then serially diluted samples of anti-PD-L1/CD137 bi-specific antibodies were pipetted into appropriate wells at 50 μL/well, and the plate was incubated for 1 h followed by Washing. Human PD-L1 ECD fragment (His tag) was added into the plate at 50 μL/well. After 1-hour incubation at room temperature, HRP-conjugated anti-His tag antibody was added into the plate at 100 μL/well and […]. The plate was incubated for 1 hour at room temperature followed by washing. TMB substrate solution was added at 100 μL/well and the color development was stopped by adding 100 uL/well Stop Solution (2N H₂SO₄). Absorbance at 450 nm and 620 nm was read by Tecan F200 Pro plate reader. GraphPad 7.0, “[Agonist] vs. response—Variable slope (four parameters)” was used to plot the binding data and calculate binding EC50 values.

[3] = target: T3, Human PD-L1 ECD fragment (His tag) (human, UniProt Q9NZQ7 19-238); test: as above
T3 construct: extracellular domain; also called recombinant human PD-L1; not shown: His tag
T3 sequence (Q9NZQ7 19-238): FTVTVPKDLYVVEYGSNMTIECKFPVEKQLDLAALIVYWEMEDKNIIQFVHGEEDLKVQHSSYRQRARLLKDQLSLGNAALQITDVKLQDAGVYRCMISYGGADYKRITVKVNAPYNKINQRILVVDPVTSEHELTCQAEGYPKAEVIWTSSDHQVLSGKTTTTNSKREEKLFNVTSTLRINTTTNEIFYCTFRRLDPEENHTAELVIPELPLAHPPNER
Description: as §2

[4] = target: T4, human GITR expressed on cells (human, UniProt Q9Y5U5 26-241); test: flow cytometry (FACS), MFI, CHO cells expressing human GITR
T4 construct: whole, on cells; also called TNFRSF18; CD357
T4 sequence (looked up): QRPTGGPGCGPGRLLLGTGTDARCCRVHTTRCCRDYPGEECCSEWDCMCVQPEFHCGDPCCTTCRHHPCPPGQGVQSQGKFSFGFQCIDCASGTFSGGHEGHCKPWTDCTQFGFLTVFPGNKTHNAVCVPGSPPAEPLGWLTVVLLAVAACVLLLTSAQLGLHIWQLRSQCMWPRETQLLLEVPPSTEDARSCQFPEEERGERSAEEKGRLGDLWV
Description: FACS analysis was performed to evaluate the binding properties of exemplary anti-GITR humanized antibodies. Briefly, CHO cells over-expressing human GITR were harvested using trypsin-EDTA partial digestion followed by centrifugation at 1000 g for 3 minutes. The cells were re-suspended in cold PBS-BSA (2%) at 2×10⁶/mL and aliquoted to 100 μL/tube. The anti-GITR humanized antibodies were diluted in PBS-BSA (final concentrations were 0.01, 0.1, 1 and 10 μg/mL) and 50 μL of each was added to the CHO-GITR cells. The cell solutions were mixed and incubated at 4° C. in the dark for 2 hours. The cells were then washed with PBS-BSA twice. Secondary antibody conjugates (goat F(ab′)2 anti-human IgG—Fc (PE), pre-adsorbed, Abcam #ab98596) at 1/500 dilution and 100 μL/well was added and the cells were mixed and incubated 4° C. in dark for 1 hour. The cells were then washed twice with PBS-BSA, followed by fixation in 2% PFA/PBS, and were then subjected to FACS analysis.
[0270] (b) Agonistic Activity for GITR

[5] = target: T5, human CD137 expressed on cells (human, UniProt Q07011 24-255); test: FACS on CHO cells expressing human CD137 (MFI)
T5 construct: whole, on cells; also called 4-1BB; TNFRSF9
T5 sequence (Q07011 24-255): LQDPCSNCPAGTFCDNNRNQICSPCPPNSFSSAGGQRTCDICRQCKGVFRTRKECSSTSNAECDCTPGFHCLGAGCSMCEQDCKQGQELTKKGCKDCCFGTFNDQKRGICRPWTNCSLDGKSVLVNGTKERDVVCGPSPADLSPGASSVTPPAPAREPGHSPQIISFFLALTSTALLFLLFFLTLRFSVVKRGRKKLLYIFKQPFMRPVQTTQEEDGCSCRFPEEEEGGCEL
Description: as §1, with “Anti-CD40/CD137” for “Exemplary anti-PD-1/CD137”, “CD40” for “PD-1”, “1000×g),” for “1000× g),”

[6] = target: T6, human CD40 expressed on CHO cells (human, UniProt P25942 21-277); test: FACS on CHO cells expressing human CD40 (MFI)
T6 construct: whole, on cells
T6 sequence (P25942 21-277): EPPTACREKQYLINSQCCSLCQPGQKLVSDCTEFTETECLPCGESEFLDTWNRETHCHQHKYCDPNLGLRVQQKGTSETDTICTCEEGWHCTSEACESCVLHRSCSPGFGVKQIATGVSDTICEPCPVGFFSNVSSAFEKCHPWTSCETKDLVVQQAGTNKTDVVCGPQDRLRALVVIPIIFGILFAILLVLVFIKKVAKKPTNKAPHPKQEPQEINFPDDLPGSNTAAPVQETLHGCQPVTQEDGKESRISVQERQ

T1 sequence (Q9NZQ7 19-290): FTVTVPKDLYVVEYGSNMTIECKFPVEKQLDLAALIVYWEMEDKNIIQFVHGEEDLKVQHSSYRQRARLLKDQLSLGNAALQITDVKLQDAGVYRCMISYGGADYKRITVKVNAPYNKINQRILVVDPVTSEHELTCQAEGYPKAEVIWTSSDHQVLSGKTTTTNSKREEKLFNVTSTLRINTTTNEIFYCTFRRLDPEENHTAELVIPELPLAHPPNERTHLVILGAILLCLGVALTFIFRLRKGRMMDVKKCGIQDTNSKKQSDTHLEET

B1: Ly299 (bispecific antibody, human IgG1, kappa)
heavy: QVQLVQSGAEVKKPGASVKVSCKASGYTFTDFWMSWVRQAPGQGLEWMGQIYPNTGTTHSNEKFKGRVTMTRDTSTSTVYMELSSLRSEDTAVYYCARSYHISTTPNWFAYWGQGTLVTVSSASTKGPSVFPLAPSSKSTSGGTAALGCLVKDYFPEPVTVSWNSGALTSGVHTFPAVLQSSGLYSLSSVVTVPSSSLGTQTYICNVNHKPSNTKVDKKVEPKSCDKTHTCPPCPAPELLGPSVFLFPPKPKDTLMISRTPEVTCVVVDVSHEDPEVKFNWYVDGVEVHNAKTKPREEQYNSTYRVVSVLTVLHQDWLNGKEYKCKVSNKALPAPIEKTISKAKGQPREPQVYTLPPSREEMTKNQVSLTCLVKGFYPSDIAVEWESNGQPENNYKTTPPVLDSDGSFFLYSKLTVDKSRWQQGNVFSCSVMHEALHNHYTQKSLSLSPGGGGGSGGGGSGGGGSGGGGSDIQMTQSPSSLSASVGDRVTITCRASQDIRSNLNWYQQKPGGAVKLLIYYTSRLHSGVPSRFSGSGSGTDYTLTISSLQPEDFATYFCQQSEKLPRTFGGGTKVEIRGGGGSGGGGSGGGGSGGGGSQVQLVQSGAEVKKPGASVKVSCKASGYTFAGFEMHWVRQAPGQGLEWMGAIDPKTGGTDYNQKFKDRVTMTRDTSISTAYMELSRLRSDDTAVYYCARDLGYFDVWGQGTLVTVSS
light: DIQMTQSPSSLSASVGDRVTITCKASQNVYKKLEWYQQKPGKVPKVLIYHTNILQTGVPSRFSGSGSGTDYTLTISSLQPEDVATYYCYQWNSGPTFGGGTKVEIKRTVAAPSVFIFPPSDEQLKSGTASVVCLLNNFYPREAKVQWKVDNALQSGNSQESVTEQDSKDSTYSLSSTLTLSKADYEKHKVYACEVTHQGLSSPVTKSFNRGEC
notes: Anti-PD-L1/CD137: Ly076 heavy chain fused to Ly1630 scFv (VL-VH); Ly076 light chain
In the case of B1, the binding result [1] is reported as “binds”, the “EC50 (read off the curve)” value [2] is reported as roughly 0.1 µg/mL and the binding result [3] is reported as “binds”.

B2: TM676 (antibody, human IgG1, kappa, V domains shown)
VH: QVQLQESGPGLVKPSETLSLTCTVSGFSLTSYNVHWIRQPPGKGLEWIGVIWSGVRTDYNSVLKSRVTISVDTSKNQFSLKLSSVTAADTAVYYCARGTYDANYHDVMDAWGQGTMVTVSS
VL: EIVLTQSPATLSLSPGERATLSCRASKSVRTGMHWYQQKPGQAPRLLIYGASNLESGIPARFSGSGSGTDFTLTISSLEPEDFAVYYCHQSWNHFTFGQGTKLEIKR
notes: Humanized anti-GITR antibody; also called humanized LYV392 antibody (VH-1/IgG1 mut, VL-1/kappa)
B2: binds [4].

B3: TM392 (antibody, human IgG4 S228P, kappa, V domains shown)
VH: QVQLKESGPGLVQPSETLSLTCNVSGFSLTSYNVHWVRQPPGKGLEWLGVIWSGVRTDYNSVLKSRLSIRWDSSKNQVFLKMNSLQSEDTATYYCARGTYDANYHDVMDAWGQGASVTVSS
VL: DTVLTQSPALAVSPGERVTISCRASKSVRTGMHWYQQKPGQQPKLLVYGASNLESGVPARFSGSGSGTDFTLTIDPVEADDIATYFCHQSWNHFTFGSGTKLEIKR
notes: Chimeric anti-GITR antibody; also called chimeric antibody TM392 (LYV392 with human constant regions)
B3: binds [4].

B4: TM396 (antibody, human IgG4 S228P, kappa, V domains shown)
VH: QVQLKESGPGLVQPSETLSLTCTVSGFSLTSYNVHWVRQPPGKGLEWLGVIWSGVRTDYNSVLKPRLSISRDSSKNKVFLNMNSLQSEDTATYYCARGTYDDNYHDVMDAWGQGASVTVSS
VL: DTVLTQSPALAVSPGERVTISCRASKSVRTGMHWYQQKPGQQPKLLIYGASNLESGVPVRFSGSGSGTDFTLTIDPVEADDTATYFCQQSWNHFTFGSGTKLEIKR
notes: Chimeric anti-GITR antibody from LYV396; also called chimeric antibody TM396 (IgG4)
B4: binds [4].

B5: Ly348 (bispecific antibody, human IgG1, kappa)
heavy: QVQLVQSGAEVKKPGASVKVSCKASGYTFTDFWMSWVRQAPGQGLEWMGQIYPNTGTTHSNEKFKGRVTMTRDTSTSTVYMELSSLRSEDTAVYYCARSYHISTTPNWFAYWGQGTLVTVSSASTKGPSVFPLAPSSKSTSGGTAALGCLVKDYFPEPVTVSWNSGALTSGVHTFPAVLQSSGLYSLSSVVTVPSSSLGTQTYICNVNHKPSNTKVDKKVEPKSCDKTHTCPPCPAPELLGPSVFLFPPKPKDTLMISRTPEVTCVVVDVSHEDPEVKFNWYVDGVEVHNAKTKPREEQYNSTYRVVSVLTVLHQDWLNGKEYKCKVSNKALPAPIEKTISKAKGQPREPQVYTLPPSREEMTKNQVSLTCLVKGFYPSDIAVEWESNGQPENNYKTTPPVLDSDGSFFLYSKLTVDKSRWQQGNVFSCSVMHEALHNHYTQKSLSLSPG
light: DIQMTQSPSSLSASVGDRVTITCKASQNVYKKLEWYQQKPGKVPKVLIYHTNILQTGVPSRFSGSGSGTDYTLTISSLQPEDVATYYCYQWNSGPTFGGGTKVEIKRTVAAPSVFIFPPSDEQLKSGTASVVCLLNNFYPREAKVQWKVDNALQSGNSQESVTEQDSKDSTYSLSSTLTLSKADYEKHKVYACEVTHQGLSSPVTKSFNRGECGGGGSGGGGSGGGGSGGGGSDIQMTQSPSSLSASVGDRVTITCRASQDIRSNLNWYQQKPGGAVKLLIYYTSRLHSGVPSRFSGSGSGTDYTLTISSLQPEDFATYFCQQSEKLPRTFGGGTKVEIRGGGGSGGGGSGGGGSGGGGSQVQLVQSGAEVKKPGASVKVSCKASGYTFAGFEMHWVRQAPGQGLEWMGAIDPKTGGTDYNQKFKDRVTMTRDTSISTAYMELSRLRSDDTAVYYCARDLGYFDVWGQGTLVTVSS
notes: Anti-PD-L1/CD137: Ly076 heavy chain; Ly076 light chain fused to Ly1630 scFv (VL-VH)
With B5 the binding result [1] was “binds”, the “EC50 (read off the curve)” value [2] was roughly 0.1 µg/mL and the binding result [3] was “binds”.

B6: Ly738 (bispecific antibody, human IgG1, kappa)
heavy: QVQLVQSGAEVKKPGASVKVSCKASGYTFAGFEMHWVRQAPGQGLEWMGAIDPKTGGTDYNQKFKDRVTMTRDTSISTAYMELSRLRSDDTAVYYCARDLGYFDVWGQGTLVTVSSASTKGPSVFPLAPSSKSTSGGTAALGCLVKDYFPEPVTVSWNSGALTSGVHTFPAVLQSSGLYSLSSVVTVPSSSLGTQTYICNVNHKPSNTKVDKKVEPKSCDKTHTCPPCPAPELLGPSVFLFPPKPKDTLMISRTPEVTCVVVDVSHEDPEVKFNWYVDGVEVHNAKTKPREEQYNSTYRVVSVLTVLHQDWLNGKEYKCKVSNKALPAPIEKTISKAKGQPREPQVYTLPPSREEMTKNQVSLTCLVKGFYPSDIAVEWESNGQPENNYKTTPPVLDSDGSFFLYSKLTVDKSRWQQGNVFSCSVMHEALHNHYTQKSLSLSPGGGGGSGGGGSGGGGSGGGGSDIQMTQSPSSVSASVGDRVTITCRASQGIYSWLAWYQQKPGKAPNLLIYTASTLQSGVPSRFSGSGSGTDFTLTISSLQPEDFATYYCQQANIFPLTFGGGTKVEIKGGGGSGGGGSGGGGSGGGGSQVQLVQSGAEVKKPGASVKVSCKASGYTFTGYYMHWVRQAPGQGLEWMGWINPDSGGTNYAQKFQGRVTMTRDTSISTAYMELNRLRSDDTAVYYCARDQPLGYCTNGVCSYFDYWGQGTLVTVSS
light: DIQMTQSPSSLSASVGDRVTITCRASQDIRSNLNWYQQKPGGAVKLLIYYTSRLHSGVPSRFSGSGSGTDYTLTISSLQPEDFATYFCQQSEKLPRTFGGGTKVEIRRTVAAPSVFIFPPSDEQLKSGTASVVCLLNNFYPREAKVQWKVDNALQSGNSQESVTEQDSKDSTYSLSSTLTLSKADYEKHKVYACEVTHQGLSSPVTKSFNRGEC
notes: Anti-CD40/CD137: Ly1630 heavy chain fused to Ly253 scFv (VL-VH); Ly1630 light chain
In the case of B6, the “EC50 (read off the curve)” value [5] is reported as roughly 0.05 µg/mL and the “EC50 (read off the curve)” value [6] is reported as roughly 0.08 µg/mL.

B7: Ly739 (bispecific antibody, human IgG1, kappa)
heavy: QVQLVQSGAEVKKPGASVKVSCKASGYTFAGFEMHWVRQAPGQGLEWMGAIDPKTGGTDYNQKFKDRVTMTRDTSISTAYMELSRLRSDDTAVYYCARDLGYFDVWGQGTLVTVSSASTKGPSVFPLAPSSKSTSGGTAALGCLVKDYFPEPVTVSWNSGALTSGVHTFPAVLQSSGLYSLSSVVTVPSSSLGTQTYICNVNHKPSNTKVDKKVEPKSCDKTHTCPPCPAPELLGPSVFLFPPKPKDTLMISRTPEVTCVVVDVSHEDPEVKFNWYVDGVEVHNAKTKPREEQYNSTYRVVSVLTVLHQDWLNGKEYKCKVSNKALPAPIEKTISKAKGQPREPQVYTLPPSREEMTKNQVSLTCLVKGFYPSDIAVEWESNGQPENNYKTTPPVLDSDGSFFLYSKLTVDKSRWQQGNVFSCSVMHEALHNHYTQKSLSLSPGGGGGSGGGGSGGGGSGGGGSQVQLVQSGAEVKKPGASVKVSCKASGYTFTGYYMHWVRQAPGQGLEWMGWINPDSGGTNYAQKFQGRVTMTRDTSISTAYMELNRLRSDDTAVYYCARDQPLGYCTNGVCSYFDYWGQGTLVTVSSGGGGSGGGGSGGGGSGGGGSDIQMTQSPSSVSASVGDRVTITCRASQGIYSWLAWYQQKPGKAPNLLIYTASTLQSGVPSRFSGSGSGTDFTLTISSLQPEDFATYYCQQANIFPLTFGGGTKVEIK
light: DIQMTQSPSSLSASVGDRVTITCRASQDIRSNLNWYQQKPGGAVKLLIYYTSRLHSGVPSRFSGSGSGTDYTLTISSLQPEDFATYFCQQSEKLPRTFGGGTKVEIRRTVAAPSVFIFPPSDEQLKSGTASVVCLLNNFYPREAKVQWKVDNALQSGNSQESVTEQDSKDSTYSLSSTLTLSKADYEKHKVYACEVTHQGLSSPVTKSFNRGEC
notes: Anti-CD40/CD137: Ly1630 heavy chain fused to Ly253 scFv (VH-VL); Ly1630 light chain
B7 was tested, and the “EC50 (read off the curve)” value [5] was roughly 0.05 µg/mL and the binding result [6] was “binds”.
